Test results reported in PMC8041799, “Reovirus directly engages integrin to recruit clathrin for entry into host cells” (Nature Communications, 2021).

What was measured:
α2β1 integrin [1] = target: α2β1 integrin (UniProt P17301); assay: single-virus force spectroscopy (FD-curve-based AFM); virus particle on the AFM tip through a PEG27 linker; α2β1 integrin coupled by NHS/EDC to a gold surface; virion-storage buffer (150 mM NaCl, 15 mM MgCl2, 10 mM Tris pH 7.4) with 2 mM Mn2+; ~25 °C; koff from a Bell-Evans fit, kon from BF against contact time, KD = koff/kon
Sequence of α2β1 integrin (UniProt P17301) (P17301 30-1132, chain 1 of 2): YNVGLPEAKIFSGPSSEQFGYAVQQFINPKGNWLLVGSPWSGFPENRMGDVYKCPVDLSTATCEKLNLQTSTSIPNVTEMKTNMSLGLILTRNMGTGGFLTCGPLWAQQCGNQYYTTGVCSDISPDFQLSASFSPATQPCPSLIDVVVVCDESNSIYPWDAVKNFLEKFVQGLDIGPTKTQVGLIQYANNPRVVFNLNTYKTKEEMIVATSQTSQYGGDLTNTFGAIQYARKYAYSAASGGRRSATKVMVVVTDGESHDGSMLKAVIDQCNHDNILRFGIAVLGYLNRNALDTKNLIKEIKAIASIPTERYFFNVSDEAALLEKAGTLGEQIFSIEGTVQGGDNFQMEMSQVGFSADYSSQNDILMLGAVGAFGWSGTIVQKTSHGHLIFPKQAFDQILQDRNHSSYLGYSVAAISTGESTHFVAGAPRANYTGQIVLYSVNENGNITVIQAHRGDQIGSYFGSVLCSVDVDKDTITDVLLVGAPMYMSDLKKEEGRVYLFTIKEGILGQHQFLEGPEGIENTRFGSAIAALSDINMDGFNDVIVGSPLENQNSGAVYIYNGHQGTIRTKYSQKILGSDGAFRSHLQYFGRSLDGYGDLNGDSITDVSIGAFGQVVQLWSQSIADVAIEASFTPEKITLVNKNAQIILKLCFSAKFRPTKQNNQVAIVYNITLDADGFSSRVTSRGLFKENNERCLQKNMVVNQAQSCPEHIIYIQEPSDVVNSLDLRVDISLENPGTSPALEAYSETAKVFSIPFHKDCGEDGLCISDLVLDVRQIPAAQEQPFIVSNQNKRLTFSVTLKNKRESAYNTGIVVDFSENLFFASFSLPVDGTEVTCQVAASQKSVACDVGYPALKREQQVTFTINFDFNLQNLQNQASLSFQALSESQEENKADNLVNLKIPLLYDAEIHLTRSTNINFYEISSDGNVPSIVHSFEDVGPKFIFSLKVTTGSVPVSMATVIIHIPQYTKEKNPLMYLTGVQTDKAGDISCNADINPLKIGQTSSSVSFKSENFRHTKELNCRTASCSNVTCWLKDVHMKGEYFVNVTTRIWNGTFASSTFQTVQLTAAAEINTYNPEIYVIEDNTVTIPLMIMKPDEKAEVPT
Sequence of α2β1 integrin (UniProt P17301) (P05556 21-728, chain 2 of 2, further chain): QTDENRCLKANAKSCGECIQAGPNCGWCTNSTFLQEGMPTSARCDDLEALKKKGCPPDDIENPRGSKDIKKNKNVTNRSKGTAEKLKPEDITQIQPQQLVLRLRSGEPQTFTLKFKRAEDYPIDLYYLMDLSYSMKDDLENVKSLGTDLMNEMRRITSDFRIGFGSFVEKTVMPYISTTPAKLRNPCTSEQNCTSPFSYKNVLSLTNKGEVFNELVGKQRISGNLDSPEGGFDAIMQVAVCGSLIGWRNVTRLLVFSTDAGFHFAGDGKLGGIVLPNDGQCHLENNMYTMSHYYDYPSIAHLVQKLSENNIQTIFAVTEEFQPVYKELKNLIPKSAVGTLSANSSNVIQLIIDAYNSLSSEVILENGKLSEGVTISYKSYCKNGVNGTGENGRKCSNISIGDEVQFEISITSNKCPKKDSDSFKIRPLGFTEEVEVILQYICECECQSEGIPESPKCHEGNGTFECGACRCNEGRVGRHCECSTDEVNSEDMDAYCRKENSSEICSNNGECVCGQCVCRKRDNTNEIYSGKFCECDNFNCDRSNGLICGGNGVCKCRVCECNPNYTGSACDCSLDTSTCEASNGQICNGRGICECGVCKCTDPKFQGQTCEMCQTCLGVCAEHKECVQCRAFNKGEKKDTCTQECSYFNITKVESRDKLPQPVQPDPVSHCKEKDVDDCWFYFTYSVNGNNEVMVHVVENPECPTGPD

α2β1 integrin [2] = target: α2β1 integrin (UniProt P17301); assay: single-virus force spectroscopy (FD-curve-based AFM); as a1 but 15 mM Mg2+ of the virion-storage buffer as only divalent cation
α2β1 integrin [3] = target: α2β1 integrin (UniProt P17301); assay: BLI; α2β1 integrin immobilised on amine-reactive (AR2G) biosensors; T3SA+ virus ~10^13 particles/mL (16 nM in the fit) in virion-storage buffer with 2 mM Mn2+; room temperature; BLItz
α2β1 integrin [4] = target: α2β1 integrin (UniProt P17301); assay: single-virus force spectroscopy (FD-curve-based AFM); as a1 but with 2 mM Ca2+ instead of Mn2+
[5] = target: β1 integrin on living Lec2 cells (Chinese hamster (endogenous in Lec2)); assay: single-virus force spectroscopy (FD-curve-based AFM); virion on the AFM tip; living Lec2 cells, PeakForce QNM mode, cell culture conditions; 0.5 mM Mn2+
[6] = target: β1 integrin on living Lec2 cells (Chinese hamster (endogenous in Lec2)); assay: single-virus force spectroscopy (FD-curve-based AFM); virion on the AFM tip; living Lec2 cells, PeakForce QNM mode; with Ca2+ (concentration on cells not stated)
α2β1 integrin [7] = target: α2β1 integrin (UniProt P17301); assay: BLI; as a11, virion-storage buffer with 2 mM Ca2+
[8] = target: β1 integrin on living Lec2 cells (Chinese hamster (endogenous in Lec2)); assay: single-virus force spectroscopy (FD-curve-based AFM); virion on the AFM tip; living Lec2 cells, PeakForce QNM mode; 0.5 mM Mg2+
α2β1 integrin [9] = target: α2β1 integrin (UniProt P17301); assay: single-virus force spectroscopy (FD-curve-based AFM); as a1 (Mn2+), with 1 mM Neu5Ac
α2β1 integrin [10] = target: α2β1 integrin (UniProt P17301); assay: BLI; as a11, virion-storage buffer (15 mM Mg2+) without further cation
α2β1 integrin [11] = target: T1, α2β1 integrin (UniProt P17301 30-1132; P05556 21-728); assay: single-virus force spectroscopy (FD-curve-based AFM); virus particle on the AFM tip through a PEG27 linker; α2β1 integrin coupled by NHS/EDC to a gold surface; virion-storage buffer (150 mM NaCl, 15 mM MgCl2, 10 mM Tris pH 7.4) with 2 mM Mn2+; ~25 °C; koff from a Bell-Evans fit, kon from BF against contact time, KD = koff/kon; conditions: both partners purified
T1 construct: integrin α2 subunit; integrin β1 subunit; No catalogue number printed; The vendor's recombinant α2β1 is, as far as I recall, the human extracellular domains joined by acidic and basic tails; Coupled through amines (NHS/EDC) to gold surfaces or AR2G biosensors; also called α2β1 integrins; β1 integrins; source: bought: R&D Systems
T1 sequence (P17301 30-1132, chain 1 of 2): as the sequence (P17301 30-1132, chain 1 of 2) above
T1 sequence (P05556 21-728, chain 2 of 2): as the sequence (P05556 21-728, chain 2 of 2, further chain) above

reovirus strain T3SA+ virion (from UniProt P03528 1-455; P11077 1-708; P07939 1-365) (complex)
BF (binding frequency) (α2β1 integrin [1]): 19%
Kd (α2β1 integrin [1]): 68 nM
koff (α2β1 integrin [1]): 0.4 s⁻¹
kon (α2β1 integrin [1]): 5.83e+06 M⁻¹ s⁻¹
BF (binding frequency) (α2β1 integrin [2]): 8%
Kd (α2β1 integrin [2]): 548 nM
koff (α2β1 integrin [2]): 2.1 s⁻¹
kon (α2β1 integrin [2]): 3.83e+06 M⁻¹ s⁻¹
Kd (α2β1 integrin [3]): 2 nM
BF (binding frequency) (α2β1 integrin [4]): 1%
BF (binding frequency) [5]: 6%
BF (binding frequency) [6]: 1%
Kd (α2β1 integrin [7]): 85 nM
BF (binding frequency) [8]: 3%
BF (binding frequency) with Neu5Ac (α2β1 integrin [9]): 6%
Kd (α2β1 integrin [9]): 116 nM
koff (α2β1 integrin [9]): 0.57 s⁻¹
kon (α2β1 integrin [9]): 4.92e+06 M⁻¹ s⁻¹
Kd (α2β1 integrin [10]): 10 nM

T3SA+ infectious subvirion particle (ISVP) (from UniProt P03528 1-455; P11077 1-708) (complex)
BF (binding frequency) (α2β1 integrin [1]): 4%
Kd (α2β1 integrin [1]): 105 nM
koff (α2β1 integrin [1]): 0.59 s⁻¹
kon (α2β1 integrin [1]): 5.62e+06 M⁻¹ s⁻¹

reovirus strain T3SA- virion (from UniProt P03528 1-455; P11077 1-708; P07939 1-365) (complex)
BF (binding frequency) (α2β1 integrin [1]): 7%
Kd (α2β1 integrin [1]): 103 nM
koff (α2β1 integrin [1]): 0.58 s⁻¹
kon (α2β1 integrin [1]): 5.62e+06 M⁻¹ s⁻¹

B1: T3SA+ core (complex)
chain: MANVWGVRLADSLSSPTIETRTRHYTLRDFCSDLDAVAGKEPWRPLRNQRTNDIVAVQLFRPLQGLVLDTQFYGFPGIFSEWEQFIKEKLRVLKYEVLRIYPISNYNHERVNVFVANALVGAFLSNQAFYDLLPLLVINDTMINDLLGTGAALSQFFQSHGEVLEVAAGRKYLQMKNYSNDDDDPPLFAKDLSDYAKAFYSDTFETLDRFFWTHDSSAGVLVHYDKPTNGNHYILGTLTQMVSAPPHIINATDALLLESCLEQFAANVRARPAQPVARLDQCYHLRWGAQYVGEDSLTYRLGVLSLLATNGYQLARPIPKQLTNRWLSSFVSQVMSDGVNETPLWPQERYVQIAYDSPSVVDGATHYGYVRRNQLRLGMRVSALQSLSDTPAPIQWLPQYTIEQAAVDEGDLMVSRLTQLPLRPDYGSIWVGDALSYYVDYNRSHRVVLSSELPQLPDTYFDGDEQYGRSLFSLARKIGDRSLIKDTAVLKHAYQAIDPNTGKEYLRAGQSVAYFGASAGHSGADQPLVIEPWTQGKISGVPPPSSVRQFGYDVAKGAIVDLARPFPSGDYQFVYSDVDQVVDGHDDLSISSGLVESLLDSCMHATSPGGSFVMKINFPTRTVWHYIEQKILPNITSYMLIKPFVTNNVELFFVAFGVHQQSALTWTSGVYFFLVDHFYRYETLSTISRQLPSFGYVDDGSSVTGIEMISLENPGFSNMTQAARVGISGLCANVGNARKLISIHESHGARVLTITSRRSPASARRKARLRYLPLVDPRSLEVQARTILPSNPVLFDNVNGASPHVCLTMMYNFEVSSAVYDGDVVLDLGTGPEAKILELIPPTSPVTCVDIRPTAQPSGCWNVRTTFLELDYLSDGWITGIRGDIVTCMLSLGAAAAGKSMTFDAAFQQLVKVLTKSTANVLLIQVNCPTDVIRTIKGYLEIDQTNKRYRFPKFGRDEPYSDMDSLERICRAAWPNCSITWVPLSYDLRWTKLALLESTTLSSASVRIAELMYKYMPVMRIDIHGLPMEKQGNFIVGQNCSLTIPGFNAQDVFNCYFNSALAFSTEDVNSAMIPQVTAQFDANKGEWSLDMVFSDAGIYTMQALVGSNANPVSLGSFVVDSPDVDITDAWPAQLDFTIAGTDVDITVNPYYRLMAFVRIDGQWQIANPDKFQFFSSSTGTLVMNVKLDIADRYLLYYIRDVQSRDVGFYIQHPLQLLNTITLPTNEDLFLSAPDMREWAVKESGNTICILNSQGFVPPQDWDVLTDTISWSPSLPTYVVPPGDYTLTPL
Kd (α2β1 integrin [11]): 741 ± 317 nM
koff (α2β1 integrin [11]): 1.52 ± 0.4 s⁻¹
kon (α2β1 integrin [11]): 2.05e+06 ± 300000 M⁻¹ s⁻¹
